What was measured:
[1] = Whole-cell biocatalyst assay, E. coli expressing UGT in culture medium; type: cell-based; details: for Culture medium (μg/ml in supernatant) 3-O-glc: no added UDP-glucose
Protocol: FIG. 14 Whole-cell biocatalyst assay using UGT71C1. E. coli cells expressing recombinant were used in the biocatalyst assay. After incubation with 0.1 mM quercetin and 0.1 mM IPTG, cells were collected by centrifugation, extracted with 80% methanol and both the cell extracts (pellet) and culture medium (supernatant) were analysed using HPLC. (A) Changes in the combined amounts of aglycone/glucoside over a time-course of 0-48 h. (B) Changes in the level of different glucosides and aglycone in the culture medium over the same time-course.
Using the foundation established in the preceding example, we went on to investigate the potential of E. coli expressing plant UGTs as whole-cell biocatalysts to synthesise glucosides of quercetin. In the first instance, we used E. coli grown in 75 ml of standard culture medium. […] Table 2 describes results in which 7 different UGTs are expressed in E. coli and the identity and quantity of different glucosides recovered in the medium were analysed by HPLC. […] There was considerable variation in the level of different glucosides synthesised by the cells, although even under these non-optimised conditions, each of the four monoglucosides and two di-O-glucosides could be formed.

[2] = UGT enzyme reaction with quercetin (recombinant UGTs, HPLC); type: biochemical, Arabidopsis; details: for Specific activity (nkat/mg protein) 3-O-glc: quercetin glucosylated at 3-OH; for Specific activity (nkat/mg protein) 3-O-glc / Specific activity (nkat/mg protein) 3′-O-glc / Specific activity (nkat/mg protein) 4′-O-glc / Specific activity (nkat/mg protein) 7-O-glc: 0.5 mM quercetin, 5 mM UDP-glucose, 30° C.; for Specific activity (nkat/mg protein) 3′-O-glc: quercetin glucosylated at 3′-OH; for Specific activity (nkat/mg protein) 4′-O-glc: quercetin glucosylated at 4′-OH; for Specific activity (nkat/mg protein) 7-O-glc: quercetin glucosylated at 7-OH; for di-O-glucoside formation from quercetin: low substrate concentration, time parameter varied
How it was run: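 Recombinant Arabidopsis UGTs (2 μg) incubated with 0.5 mM quercetin and 5 mM UDP-glucose in 100 mM Tris-HCl pH 7.0 at 30 °C for 1 h. Quercetin glucosides separated from aglycone by reverse-phase C18 HPLC (acetonitrile gradient, 0.1% TFA), detected at 370 nm.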

[3] = E. coli, 2x YT medium, 0.1 mM IPTG, 0.1 mM quercetin, 24 h

B1: UGT74F1: Arabidopsis recombinant glycosyltransferase (protein, UniProt O22820 1-449, looked up)
Flavonol …: MEKMRGHVLAVPFPSQGHITPIRQFCKRLHSKGFKTTHTLTTFIFNTIHLDPSSPISIATISDGYDQGGFSSAGSVPEYLQNFKTFGSKTVADIIRKHQSTDNPITCIVYDSFMPWALDLAMDFGLAAAPFFTQSCAVNYINYLSYINNGSLTLPIKDLPLLELQDLPTFVTPTGSHLAYFEMVLQQFTNFDKADFVLVNSFHDLDLHEEELLSKVCPVLTIGPTVPSMYLDQQIKSDNDYDLNLFDLKEAALCTDWLDKRPEGSVVYIAFGSMAKLSSEQMEEIASAISNFSYLWVVRASEESKLPPGFLETVDKDKSLVLKWSPQLQVLSNKAIGCFMTHCGWNSTMEGLSLGVPMVAMPQWTDQPMNAKYIQDVWKVGVRVKAEKESGICKREEIEFSIKEVMEGEKSKEMKENAGKWRDLAVKSLSEGGSTDININEFVSKIQIK
- Culture medium (μg/ml in supernatant) 4′-O-glc [1, 3]: 0.19 µg/mL
- Culture medium (μg/ml in supernatant) 7-O-glc [1, 3]: 0.53 µg/mL

B2: UGT89B1: Arabidopsis recombinant glycosyltransferase (protein, UniProt Q9C9B0 1-473, looked up)
Flavonol …: MKVNEENNKPTKTHVLIFPFPAQGHMIPLLDFTHRLALRGGAALKITVLVTPKNLPFLSPLLSAVVNIEPLILPFPSHPSIPSGVENVQDLPPSGFPLMIHALGNLHAPLISWITSHPSPPVAIVSDFFLGWTKNLGIPRFDFSPSAAITCCILNTLWIEMPTKINEDDDNEILHFPKIPNCPKYRFDQISSLYRSYVHGDPAWEFIRDSFRDNVASWGLVVNSFTAMEGVYLEHLKREMGHDRVWAVGPIIPLSGDNRGGPTSVSVDHVMSWLDAREDNHVVYVCFGSQVVLTKEQTLALASGLEKSGVHFIWAVKEPVEKDSTRGNILDGFDDRVAGRGLVIRGWAPQVAVLRHRAVGAFLTHCGWNSVVEAVVAGVLMLTWPMRADQYTDASLVVDELKVGVRACEGPDTVPDPDELARVFADSVTGNQTERIKAVELRKAALDAIQERGSSVNDLDGFIQHVVSLGLNK
- Specific activity (nkat/mg protein) 3-O-glc [2]: 2.05 nkat/mg protein
- Specific activity (nkat/mg protein) 3′-O-glc [2]: — (Activity lower than 0.02 nkat/mg protein has been considered as trace activity and is not shown in the Table.)
- Specific activity (nkat/mg protein) 4′-O-glc [2]: 3.38 nkat/mg protein
- Specific activity (nkat/mg protein) 7-O-glc [2]: 3.22 nkat/mg protein
- Culture medium (μg/ml in supernatant) 4′-O-glc [1, 3]: 0.94 µg/mL
- Culture medium (μg/ml in supernatant) 7-O-glc [1, 3]: 2.36 µg/mL
- Culture medium (μg/ml in supernatant) 3-O-glc [1, 3]: 1.08 µg/mL

B3: UGT84B1: Arabidopsis recombinant glycosyltransferase (protein, UniProt O22182 1-456, looked up)
UDP-glycosyltransferase 84B1: MGSSEGQETHVLMVTLPFQGHINPMLKLAKHLSLSSKNLHINLATIESARDLLSTVEKPRYPVDLVFFSDGLPKEDPKAPETLLKSLNKVGAMNLSKIIEEKRYSCIISSPFTPWVPAVAASHNISCAILWIQACGAYSVYYRYYMKTNSFPDLEDLNQTVELPALPLLEVRDLPSFMLPSGGAHFYNLMAEFADCLRYVKWVLVNSFYELESEIIESMADLKPVIPIGPLVSPFLLGDGEEETLDGKNLDFCKSDDCCMEWLDKQARSSVVYISFGSMLETLENQVETIAKALKNRGLPFLWVIRPKEKAQNVAVLQEMVKEGQGVVLEWSPQEKILSHEAISCFVTHCGWNSTMETVVAGVPVVAYPSWTDQPIDARLLVDVFGIGVRMRNDSVDGELKVEEVERCIEAVTEGPAAVDIRRRAAELKRVARLALAPGGSSTRNLDLFISDITIA
- Specific activity (nkat/mg protein) 3-O-glc [2]: — (Activity lower than 0.02 nkat/mg protein has been considered as trace activity and is not shown in the Table.)
- Specific activity (nkat/mg protein) 3′-O-glc [2]: — (Activity lower than 0.02 nkat/mg protein has been considered as trace activity and is not shown in the Table.)
- Specific activity (nkat/mg protein) 4′-O-glc [2]: — (Activity lower than 0.02 nkat/mg protein has been considered as trace activity and is not shown in the Table.)
- Specific activity (nkat/mg protein) 7-O-glc [2]: 0.14 nkat/mg protein
- Culture medium (μg/ml in supernatant) 7-O-glc [1, 3]: 4.83 µg/mL

B4: UGT71B1: Arabidopsis recombinant glycosyltransferase (protein, UniProt Q9LSY9 1-473, looked up)
UDP-glycosyltransferase 71B1: MKVELVFIPSPGVGHIRATTALAKLLVASDNRLSVTLIVIPSRVSDDASSSVYTNSEDRLRYILLPARDQTTDLVSYIDSQKPQVRAVVSKVAGDVSTRSDSRLAGIVVDMFCTSMIDIADEFNLSAYIFYTSNASYLGLQFHVQSLYDEKELDVSEFKDTEMKFDVPTLTQPFPAKCLPSVMLNKKWFPYVLGRARSFRATKGILVNSVADMEPQALSFFSGGNGNTNIPPVYAVGPIMDLESSGDEEKRKEILHWLKEQPTKSVVFLCFGSMGGFSEEQAREIAVALERSGHRFLWSLRRASPVGNKSNPPPGEFTNLEEILPKGFLDRTVEIGKIISWAPQVDVLNSPAIGAFVTHCGWNSILESLWFGVPMAAWPIYAEQQFNAFHMVDELGLAAEVKKEYRRDFLVEEPEIVTADEIERGIKCAMEQDSKMRKRVMEMKDKLHVALVDGGSSNCALKKFVQDVVDNVP
- Specific activity (nkat/mg protein) 3-O-glc [2]: 1.85 nkat/mg protein
- Specific activity (nkat/mg protein) 3′-O-glc [2]: — (Activity lower than 0.02 nkat/mg protein has been considered as trace activity and is not shown in the Table.)
- Specific activity (nkat/mg protein) 4′-O-glc [2]: — (Activity lower than 0.02 nkat/mg protein has been considered as trace activity and is not shown in the Table.)
- Specific activity (nkat/mg protein) 7-O-glc [2]: — (Activity lower than 0.02 nkat/mg protein has been considered as trace activity and is not shown in the Table.)

B5: UGT71C1: Arabidopsis recombinant glycosyltransferase (protein, UniProt O82381 1-481, looked up)
Flavonol …: MGKQEDAELVIIPFPFSGHILATIELAKRLISQDNPRIHTITILYWGLPFIPQADTIAFLRSLVKNEPRIRLVTLPEVQDPPPMELFVEFAESYILEYVKKMVPIIREALSTLLSSRDESGSVRVAGLVLDFFCVPMIDVGNEFNLPSYIFLTCSAGFLGMMKYLPERHREIKSEFNRSFNEELNLIPGYVNSVPTKVLPSGLFMKETYEPWVELAERFPEAKGILVNSYTALEPNGFKYFDRCPDNYPTIYPIGPILCSNDRPNLDSSERDRIITWLDDQPESSVVFLCFGSLKNLSATQINEIAQALEIVDCKFIWSFRTNPKEYASPYEALPHGFMDRVMDQGIVCGWAPQVEILAHKAVGGFVSHCGWNSILESLGFGVPIATWPMYAEQQLNAFTMVKELGLALEMRLDYVSEDGDIVKADEIAGTVRSLMDGVDVPKSKVKEIAEAGKEAVDGGSSFLAVKRFIGDLIDGVSISK
- di-O-glucoside formation from quercetin [2]: significant levels of di-O-glucosides
- Specific activity (nkat/mg protein) 3-O-glc [2]: — (Activity lower than 0.02 nkat/mg protein has been considered as trace activity and is not shown in the Table.)
- Specific activity (nkat/mg protein) 3′-O-glc [2]: 1.19 nkat/mg protein
- Specific activity (nkat/mg protein) 4′-O-glc [2]: — (Activity lower than 0.02 nkat/mg protein has been considered as trace activity and is not shown in the Table.)
- Specific activity (nkat/mg protein) 7-O-glc [2]: 0.85 nkat/mg protein
- Culture medium (μg/ml in supernatant) 3′-O-glc [1, 3]: 8.00 µg/mL
- Culture medium (μg/ml in supernatant) 7,3′-di-O-glc [1, 3]: 10.90 µg/mL
- Culture medium (μg/ml in supernatant) 7-O-glc [1, 3]: 2.12 µg/mL
- aglycone converted to glucosides ([1]; within 6 h, E. coli in 75 ml standard culture medium, no supplementary UDP-glucose): ~50%

B6: UGT76E12: Arabidopsis recombinant glycosyltransferase (protein, UniProt Q94AB5 1-458, looked up)
Flavonol …: MQVLGMEEKPARRSVVLVPFPAQGHISPMMQLAKTLHLKGFSITVVQTKFNYFSPSDDFTHDFQFVTIPESLPESDFKNLGPIQFLFKLNKECKVSFKDCLGQLVLQQSNEISCVIYDEFMYFAEAAAKECKLPNIIFSTTSATAFACRSVFDKLYANNVQAPLKETKGQQEELVPEFYPLRYKDFPVSRFASLESIMEVYRNTVDKRTASSVIINTASCLESSSLSFLQQQQLQIPVYPIGPLHMVASAPTSLLEENKSCIEWLNKQKVNSVIYISMGSIALMEINEIMEVASGLAASNQHFLWVIRPGSIPGSEWIESMPEEFSKMVLDRGYIVKWAPQKEVLSHPAVGGFWSHCGWNSTLESIGQGVPMICRPFSGDQKVNARYLECVWKIGIQVEGELDRGVVERAVKRLMVDEEGEEMRKRAFSLKEQLRASVKSGGSSHNSLEEFVHFIRTL
- di-O-glucoside formation from quercetin [2]: significant levels of di-O-glucosides
- Specific activity (nkat/mg protein) 3-O-glc [2]: 1.16 nkat/mg protein
- Specific activity (nkat/mg protein) 3′-O-glc [2]: — (Activity lower than 0.02 nkat/mg protein has been considered as trace activity and is not shown in the Table.)
- Specific activity (nkat/mg protein) 4′-O-glc [2]: — (Activity lower than 0.02 nkat/mg protein has been considered as trace activity and is not shown in the Table.)
- Specific activity (nkat/mg protein) 7-O-glc [2]: 1.35 nkat/mg protein
- Culture medium (μg/ml in supernatant) 3,7-di-O-glc [1, 3]: 0.71 µg/mL
- Culture medium (μg/ml in supernatant) 7-O-glc [1, 3]: 4.74 µg/mL
- Culture medium (μg/ml in supernatant) 3-O-glc [1, 3]: 1.41 µg/mL

Reference: patent publication US7662583B2, “Bioreactor containing cells expressing glycosyltransferase nucleic acids isolatable from Arabidopsis” (The University of York, priority 2003, dated 2010)
